{"source": "patent US11667697", "binders": {"B1": {"name": "VACV-308 (antibody, V domains shown)", "VH": "QVQLVQSGAEVKKPGSSVKVSCKGSGDSFRSYAISWVRQAPGQGLEWMGGIIPRFGTTNYAQKFQDRVTITADKSTTTAYMELRSLKCEDTGVYYCARPQSAYDFGPFDHWGQGTLVTVSS", "VL": "SYELTQPPSLSVAPGKTARITCGGDNIGSKGVHWYQQKPGQAPVVVISYDSDRPSGIPERFSGSNSGDTATLTISRVEAGDEADYYCHVWHTTTDHYVFGTGTKVTVL"}}, "assay_in_all_cases": "lysate ELISA", "key": {"[1]": {"molecular_target": "CPXV ortholog of H5 (cowpox virus)"}, "[2]": {"molecular_target": "MPXV ortholog of H5 (monkeypox virus)"}, "[3]": {"molecular_target": "VACV H5 protein (vaccinia virus)"}}}
{"binder": "B1", "values": [{"measurement": "EC50", "setting": "[1]", "result": 2, "unit": "ng/mL"}, {"measurement": "EC50", "setting": "[2]", "result": 3, "unit": "ng/mL"}, {"measurement": "EC50", "setting": "[3]", "result": 6, "unit": "ng/mL"}]}
